Values quoted from earlier work in patent US20210244796A1, “COMPOSITIONS IN THE FORM OF AN INJECTABLE AQUEOUS SOLUTION COMPRISING AMYLIN AN AMYLIN RECEPTOR AGONIST OR AN AMYLIN ANALOG, AT LEAST ONE IONIC SPECIES AND AN AMPHOIPHILIC COMPOUNDS CONTAINING HYDRIPHOBIC RADICALS” (ADOCIA, priority 2018, published 2021).
Where two headings read alike, the source gives them in different places.

pH of the solution above which the peptide is described as shining (pramlintide formulated at acidic pH) | Molecule | Time for which amylin is stable (acidic pH) | Time for which amylin is stable (neutral pH)
greater than 5.5 | CC[C@H](C)[C@H](NC(=O)[C@@H]1CCCN1C(=O)CNC(=O)[C@H](Cc1ccccc1)NC(=O)[C@H](CC(N)=O)NC(=O)[C@H](CC(N)=O)NC(=O)[C@H](CO)NC(=O)[C@H](CO)NC(=O)[C@H](Cc1c[nH]cn1)NC(=O)[C@@H](NC(=O)[C@H](CC(C)C)NC(=O)[C@H](Cc1ccccc1)NC(=O)[C@H](CC(N)=O)NC(=O)[C@H](C)NC(=O)[C@H](CC(C)C)NC(=O)[C@H](CCCNC(=N)N)NC(=O)[C@H](CCC(N)=O)NC(=O)[C@@H](NC(=O)[C@H](C)NC(=O)[C@@H]1CSSC[C@H](NC(=O)[C@@H](N)CCCCN)C(=O)N[C@@H](CC(N)=O)C(=O)N[C@@H]([C@@H](C)O)C(=O)N[C@@H](C)C(=O)N[C@@H]([C@@H](C)O)C(=O)N1)[C@@H](C)O)C(C)C)C(=O)N[C@@H](CC(C)C)C(=O)N1CCC[C@H]1C(=O)N1CCC[C@H]1C(=O)N[C@H](C(=O)N[C@@H](CC(N)=O)C(=O)N[C@H](C(=O)NCC(=O)N[C@@H](CO)C(=O)N[C@@H](CC(N)=O)C(=O)N[C@H](C(=O)N[C@@H](Cc1ccc(O)cc1)C(N)=O)[C@@H](C)O)C(C)C)[C@@H](C)O [pramlintide, reference compound] | – | –
– | Amylin: 37 amino acid peptide co-stored and co-secreted with insulin (KCNTATCATQRLANFLVHSSNNFGAILSSTNVGSNTY; Islet amyloid polypeptide; UniProt P10997 34-70, looked up) | about fifteen | less than one
